The results in this text go back to PMC8115288.

The chains are these.
B1: GST-CTD (C-terminal domain of HIV-1 integrase, aa 201-288) [HIV-1 His6-SUMO-INI1_(183-304) [not stated] (parent)
chain 1: VDIIATDIQTKELQKQITKIQNFRVYYRDSRNPLWKGPAKLLWKGEGAVVIQDNSDIKVVPRRKAKIIRDYGKQMAGDDCVASRQDED
chain 2: PEVLVPIRLDMEIDGQKLRDAFTWNMNEKLMTPEMFSEILCDDLDLNPLTFVPAIASAIRQQIESYPTDSILEDQSDQRVIIKLNIHVGNISLVDQFEWDMSEKENSPEKFALKLCSELGLG

Variants of B1 are the subject of the experiment. The experiment can be described thus: Alpha assay. Conditions: with His6-SUMO-INI1_(183-304); low salt conditions; parent: 100; read off a plot.
In the case of chain 1 R28A, the percent of parent was 8 % of WT.
